These results are taken from IntAct's records for PubMed 18434552.

To fix the notation:
B1: Tyrosine-protein phosphatase non-receptor type 23 (Homo sapiens), Q9H3S7 (parent)
chain: MEAVPRMPMIWLDLKEAGDFHFQPAVKKFVLKNYGENPEAYNEELKKLELLRQNAVRVPRDFEGCSVLRKYLGQLHYLQSRVPMGSGQEAAVPVTWTEIFSGKSVAHEDIKYEQACILYNLGALHSMLGAMDKRVSEEGMKVSCTHFQCAAGAFAYLREHFPQAYSVDMSRQILTLNVNLMLGQAQECLLEKSMLDNRKSFLVARISAQVVDYYKEACRALENPDTASLLGRIQKDWKKLVQMKIYYFAAVAHLHMGKQAEEQQKFGERVAYFQSALDKLNEAIKLAKGQPDTVQDALRFTMDVIGGKYNSAKKDNDFIYHEAVPALDTLQPVKGAPLVKPLPVNPTDPAVTGPDIFAKLVPMAAHEASSLYSEEKAKLLREMMAKIEDKNEVLDQFMDSMQLDPETVDNLDAYSHIPPQLMEKCAALSVRPDTVRNLVQSMQVLSGVFTDVEASLKDIRDLLEEDELLEQKFQEAVGQAGAISITSKAELAEVRREWAKYMEVHEKASFTNSELHRAMNLHVGNLRLLSGPLDQVRAALPTPALSPEDKAVLQNLKRILAKVQEMRDQRVSLEQQLRELIQKDDITASLVTTDHSEMKKLFEEQLKKYDQLKVYLEQNLAAQDRVLCALTEANVQYAAVRRVLSDLDQKWNSTLQTLVASYEAYEDLMKKSQEGRDFYADLESKVAALLERTQSTCQAREAARQQLLDRELKKKPPPRPTAPKPLLPRREESEAVEAGDPPEELRSLPPDMVAGPRLPDTFLGSATPLHFPPSPFPSSTGPGPHYLSGPLPPGTYSGPTQLIQPRAPGPHAMPVAPGPALYPAPAYTPELGLVPRSSPQHGVVSSPYVGVGPAPPVAGLPSAPPPQFSGPELAMAVRPATTTVDSIQAPIPSHTAPRPNPTPAPPPPCFPVPPPQPLPTPYTYPAGAKQPIPAQHHFSSGIPAGFPAPRIGPQPQPHPQPHPSQAFGPQPPQQPLPLQHPHLFPPQAPGLLPPQSPYPYAPQPGVLGQPPPPLHTQLYPGPAQDPLPAHSGALPFPSPGPPQPPHPPLAYGPAPSTRPMGPQAAPLTIRGPSSAGQSTPSPHLVPSPAPSPGPGPVPPRPPAAEPPPCLRRGAAAADLLSSSPESQHGGTQSPGGGQPLLQPTKVDAAEGRRPQALRLIERDPYEHPERLRQLQQELEAFRGQLGDVGALDTVWRELQDAQEHDARGRSIAIARCYSLKNRHQDVMPYDSNRVVLRSGKDDYINASCVEGLSPYCPPLVATQAPLPGTAADFWLMVHEQKVSVIVMLVSEAEMEKQKVARYFPTERGQPMVHGALSLALSSVRSTETHVERVLSLQFRDQSLKRSLVHLHFPTWPELGLPDSPSNLLRFIQEVHAHYLHQRPLHTPIIVHCSSGVGRTGAFALLYAAVQEVEAGNGIPELPQLVRRMRQQRKHMLQEKLHLRFCYEAVVRHVEQVLQRHGVPPPCKPLASASISQKNHLPQDSQDLVLGGDVPISSIQATIAKLSIRPPGGLESPVASLPGPAEPPGLPPASLPESTPIPSSSPPPLSSPLPEAPQPKEEPPVPEAPSSGPPSSSLELLASLTPEAFSLDSSLRGKQRMSKHNFLQAHNGQGLRATRPSDDPLSLLDPLWTLNKT
partner: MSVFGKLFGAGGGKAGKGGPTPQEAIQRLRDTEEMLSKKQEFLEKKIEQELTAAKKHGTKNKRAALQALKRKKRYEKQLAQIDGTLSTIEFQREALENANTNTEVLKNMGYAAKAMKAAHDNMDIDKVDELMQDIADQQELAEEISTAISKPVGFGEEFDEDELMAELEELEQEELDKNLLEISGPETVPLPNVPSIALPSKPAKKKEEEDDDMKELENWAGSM

In the assay the parent is B1. The settings on record: with chm4b_human CHMP4B.
Regarding L202D, the “effect of a mutation on the interaction” value is recorded as “disrupting interaction”.

As for L202D;I206D, the “effect of a mutation on the interaction” value is recorded as “disrupting interaction”.
